Reference: IntAct's records for PubMed 24413433

B1: Telomere repeats-binding bouquet formation protein 1 (Mus musculus), Q8C0V1-1 (parent)
chain: MESEKPKKTQEMKTDLKLLLECLKYHMGNPLSQKEVLITIHSVCKQNSDAGIYFREIGGLMFIINLAKSSEQSLVKEAALYTLGSIAEENVYCQQSLCTSELFQDLTGLLTNDDSNTNLKRMSVYVLLVLVSNNRNGQTLVREVGCIEVLSQMFRTVLSNYELNLSDNSVFQSYLLWSSVCSTLCVCVNNPQNDENQMLCCSLFPCVNEWLMNCMRPEVIRPICSFIGLTLANNTHAQNCFVSSGGLDVLCQVLVQLESDSHNTLSSAKLAVIVTKTMDACITDNSAAFTVVLSKYHIVSTLLALLLHESLDSREKFSIILAIGHCTEDCEKNQYELLKNNGLPLMIQALTEFKNEDLSKAATYVLHNCKKITGKLSLSLGQNSFGENEIELKDISEKETLREHWKAAKEILCRIKQFEKGGKEEKQQNRSGHYKDNTPSMKVNIQTNLKRLCADSTGGTRAEDKDINQSRELRSYKPSEIMSKACANENQLTTRKKNTNPVHPFCKEKGQSKIVHETTPSCAQNLDKEKTFDQKDSVSQSSDQVLKHLPHTVKNRKQVPETDPFTLCLDIIDREVGIQATDSCSRMLKYTCSGCIVARKLLNSRNFSKFLHSCAYQCVHHKVIMEAEDKYKNELRKTFICAKKILLTPCRRRQLCKESTASEELKIVHQKPDSKKLPGLEAQALNTSIPEAMERRSPVPGQSGLHKKRRIRKDFTKEEVNYLFHGVKTMGNHWNSILWSFPFQKGRRAVDLAHKYHRLIKGPSCAAL
partner: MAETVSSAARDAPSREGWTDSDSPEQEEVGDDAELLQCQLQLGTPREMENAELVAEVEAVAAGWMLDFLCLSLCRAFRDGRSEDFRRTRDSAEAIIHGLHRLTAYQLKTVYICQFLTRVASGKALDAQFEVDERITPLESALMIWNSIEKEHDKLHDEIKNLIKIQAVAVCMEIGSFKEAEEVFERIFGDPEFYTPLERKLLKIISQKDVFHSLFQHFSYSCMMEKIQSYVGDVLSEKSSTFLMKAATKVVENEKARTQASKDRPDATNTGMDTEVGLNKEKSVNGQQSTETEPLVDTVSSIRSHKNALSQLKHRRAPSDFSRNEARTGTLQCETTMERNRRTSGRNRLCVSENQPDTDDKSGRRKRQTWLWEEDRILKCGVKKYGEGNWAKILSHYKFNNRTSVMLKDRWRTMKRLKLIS

Variants of: B1
Conditions: with terf1_mouse Terf1, P70371

effect of a mutation on the interaction | Variant
disrupting interaction strength | T648D
